From patent US20190094207A1 (JAPANESE FOUNDATION FOR CANCER RESEARCH, published 2019) come the findings set out here.

Substitutions are numbered along the chain they refer to.

Assay [1] addresses T1, GST-Aurora B (UniProt Q96GD4 1-344, limits assumed).
T1 construct: not shown: GST
In words: GST pull down with recombinant full-length INCENP + GST-Aurora B, without HP1α, with HP1α WT or with I165E; immunoblot and bar chart of Hec1 binding. As for the experimental part:
Then, enzyme kinetics analysis of Aurora B was carried out. […] Further, analysis of proteins binding to GST-Aurora B was carried out by the GST pull down assay. As a result, the amount of Hec1 binding to GST-Aurora B increased in the conditions where HP1 can bind to INCENP. […] Accordingly, binding of HP1α to INCENP is required for activating Aurora B.

The target of assay [2] is T2, Wild type HP1α (His tag or GST tag attached) (UniProt P45973 1-191).
T2 construct: also called heterochromatin protein 1; not shown: His tag or GST tag
Kind of assay: alpha assay with acceptor and donor beads capturing His tag or GST tag. As for the experimental part:
If a candidate compound is added in the binding assay system, a compound influencing the binding of INCENP and HP1 can be screened. Further, a system for analyzing the binding of HP1 and INCENP based on an alpha assay, which is more sensitive and easier in operation, was constructed. The interaction between HP1α and INCENP was determined by using acceptor beads or donor beads that can capture His tag or GST tag and detecting fluorescent signal in accordance with a conventional method. As a result of that His tag or GST tag was attached to HP1α and a region at positions 160 to 210 in INCENP (SEQ ID NO: 10) and the aforementioned alpha assay using acceptor beads and donor beads was carried out, a binding can be sensitively detected. Accordingly, owing to HTS using the binding assay or alpha assay, compounds influencing the binding of HP1 and INCENP can be screened.

Assay [3] deals with T2, Wild type HP1α (His tag or GST tag …). Kind of assay: isothermal titration calorimetry, average of 5 experiments. On the procedure: (§1) Wild type HP1α and a region at positions 121 to 270 in INCENP (SEQ ID NO: 8, INCENP WT) were used in the binding assay. The region at positions 121 to 270 in INCENP contains an important motif […], required for binding to HP1. A mutant (SEQ ID NO: 9, INCENP 3A) was obtained by substituting three amino acids in this region with alanine residues and used as a control. A dissociation constant thereof was determined by isothermal titration calorimetry. As an isothermal titration calorimetry apparatus, any device may be used. For example, using MicroCal iTC2000 system (manufactured by GE healthcare biosciences), measurement may be carried out, in accordance with a conventional method.
(§2) The above peptides, to which His tag or GST tag was attached, were subjected to isothermal titration calorimetry to determine a dissociation constant. Note that, the dissociation constant was computationally obtained based on average values of 5 experiments.

Assay [4] has the same target. Kind of assay: isothermal titration calorimetry. As for the experimental part: as §1, §2
The target in assay [5] is INCENP (Inner Centromere Protein), endogenous, as part of the chromosomal passenger complex (CPC) (human, UniProt Q9NQS7 1-918). In words: INCENP immunoprecipitated from mitotic HeLa cell extract; amount of coprecipitated protein (INCENP in the same precipitate: 1280 pmol). On the procedure:
The cells in the mitotic phase were incubated in a solution, which was prepared by adding 1 U/μl OmniCleave Endonuclease (manufactured by Epicentre) in the above immunoprecipitation buffer, at 4° C. for 30 minutes. The solution was centrifuged at 4° C. and 15,000 rpm for 10 minutes and the supernatant was further centrifuged. The resultant supernatant was used for immunoprecipitation. Protein A-Sepharose (manufactured by Bio-Rad) having an antibody bound thereto, was allowed to react with cell extracts and subjected to immunoprecipitation. […]
Next, whether or not binding to INCENP differs among the subtypes of HP1 was analyzed (FIG. 1B). […] Mitotic HeLa cell extracts were subjected to immunoprecipitation with an INCENP antibody or control IgG and then analyzed by immunoblotting using antibodies against INCENP, Aurora B (clone 6, manufactured by BD Bioscience) and Survivin (71G4B7E, manufactured by Cell Signaling Technology) constituting CPC; an HP1α antibody (clone 15.19s2, manufactured by Millipore), an HP1β antibody (clone 1MOD-1A9, manufactured by Millipore) and an HP1 γ antibody (clone 2MOD-1G6, manufactured by Millipore).
Quantitative analysis was carried out using purified recombinant HP1-subtype proteins.

T2 sequence (P45973 whole entry): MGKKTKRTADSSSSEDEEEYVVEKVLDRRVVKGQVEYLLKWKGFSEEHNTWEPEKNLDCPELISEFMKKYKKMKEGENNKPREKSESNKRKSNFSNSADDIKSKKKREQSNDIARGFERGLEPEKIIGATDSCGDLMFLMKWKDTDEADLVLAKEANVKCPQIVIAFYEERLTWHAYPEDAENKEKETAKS
Sequence of INCENP (Inner Centromere Protein), endogenous, as part of the chromosomal passenger complex (CPC) (Q9NQS7 whole entry, one chain of several): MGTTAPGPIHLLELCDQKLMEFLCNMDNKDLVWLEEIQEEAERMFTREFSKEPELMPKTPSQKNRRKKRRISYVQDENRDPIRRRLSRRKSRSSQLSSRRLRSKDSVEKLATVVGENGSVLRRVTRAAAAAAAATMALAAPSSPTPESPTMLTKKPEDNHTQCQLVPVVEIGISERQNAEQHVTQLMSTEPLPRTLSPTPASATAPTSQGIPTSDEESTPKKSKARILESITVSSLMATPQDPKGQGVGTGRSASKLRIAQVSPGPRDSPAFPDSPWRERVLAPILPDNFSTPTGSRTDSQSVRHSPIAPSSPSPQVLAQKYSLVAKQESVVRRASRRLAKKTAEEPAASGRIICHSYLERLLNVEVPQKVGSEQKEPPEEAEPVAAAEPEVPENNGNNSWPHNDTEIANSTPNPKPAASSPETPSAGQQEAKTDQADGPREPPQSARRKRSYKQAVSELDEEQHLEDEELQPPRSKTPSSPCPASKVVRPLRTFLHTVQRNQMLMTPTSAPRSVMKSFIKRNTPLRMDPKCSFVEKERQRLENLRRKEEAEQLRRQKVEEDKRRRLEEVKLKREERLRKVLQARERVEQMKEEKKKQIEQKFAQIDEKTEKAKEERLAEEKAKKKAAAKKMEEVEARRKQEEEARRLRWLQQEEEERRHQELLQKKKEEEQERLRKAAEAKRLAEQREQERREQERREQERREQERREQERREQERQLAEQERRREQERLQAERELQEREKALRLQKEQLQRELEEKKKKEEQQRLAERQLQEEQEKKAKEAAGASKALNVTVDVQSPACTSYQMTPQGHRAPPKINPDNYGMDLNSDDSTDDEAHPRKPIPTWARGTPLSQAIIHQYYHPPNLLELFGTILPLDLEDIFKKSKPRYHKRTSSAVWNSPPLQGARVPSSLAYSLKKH

B1: Hec1 (other, UniProt O14777 1-80, looked up)
chain: MKRSSVSSGGAGRLSMQELRSQDVNKQGLYTPQTKEKPTFGKLSINKPTSERKVSLFGKRTSGHGSRNSQLGIFSSSEKI
notes: also called Aurora B substrate
Turning to B1, the binding result in assay [1] is on record as “binds”.

B2: Region at positions 160 to 210 in INCENP (peptide)
chain: TQCQLVPVVEIGISERQNAEQHVTQLMSTEPLPRTLSPTPASATAPTSQG
notes: Used in the alpha assay with HP1α; also called INCENP 160-210; not shown: His tag or GST tag
Take B2: the binding result in assay [2] is given as “binds”.

B3: INCENP WT (region at positions 121 to 270 in INCENP) (peptide)
chain: LRRVTRAAAAAAAATMALAAPSSPTPESPTMLTKKPEDNHTQCQLVPVVEIGISERQNAEQHVTQLMSTEPLPRTLSPTPASATAPTSQGIPTSDEESTPKKSKARILESITVSSLMATPQDPKGQGVGTGRSASKLRIAQVSPGPRDSP
notes: also called INCENP 121-270; not shown: His tag or GST tag
In the case of B3, in assay [3], the affinity, expressed as Kd, was 0.102 µM.

B4: INCENP 3A (region 121 to 270 of INCENP with three amino acids substituted with alanine) (peptide)
chain: B3 chain with P47A, V49A, I51A
notes: also called INCENP 3A mutant; not shown: His tag or GST tag
Consider B4, for which the binding result in assay [4] is reported as “no binding”.

B5: Aurora B (endogenous) (enzyme, human, UniProt Q96GD4 1-344, looked up)
chain: MAQKENSYPWPYGRQTAPSGLSTLPQRVLRKEPVTPSALVLMSRSNVQPTAAPGQKVMENSSGTPDILTRHFTIDDFEIGRPLGKGKFGNVYLAREKKSHFIVALKVLFKSQIEKEGVEHQLRREIEIQAHLHHPNILRLYNYFYDRRRIYLILEYAPRGELYKELQKSCTFDEQRTATIMEELADALMYCHGKKVIHRDIKPENLLLGLKGELKIADFGWSVHAPSLRRKTMCGTLDYLPPEMIEGRMHNEKVDLWCIGVLCYELLVGNPPFESASHNETYRRIVKVDLKFPASVPMGAQDLISKLLRHNPSERLPLAQVSAHPWVRANSRRVLPPSALQSVA
As for B5, in assay [5], the “Amount” value was 1110 pmol.
